This note sets out measurements from patent publication US20130231277A1 (NEW YORK UNIVERSITY, published 2013).

The target in assay [1] is FGFR1c endogenously expressed by HEK293 cells transiently transfected with murine βKlotho (UniProt P11362 22-822). Put plainly: cell-based or functional assay.
The target of assay [2] is T1, 1:1 complex of FGFR1c ligand-binding domain and αKlotho ectodomain (human; murine, UniProt P11362 142-365; O35082 35-982).
T1 construct: also called FGFR1c-αKlotho complex; binary FGFR1c-αKlotho complex; not shown: C-terminal FLAG tag
T1 sequence 1: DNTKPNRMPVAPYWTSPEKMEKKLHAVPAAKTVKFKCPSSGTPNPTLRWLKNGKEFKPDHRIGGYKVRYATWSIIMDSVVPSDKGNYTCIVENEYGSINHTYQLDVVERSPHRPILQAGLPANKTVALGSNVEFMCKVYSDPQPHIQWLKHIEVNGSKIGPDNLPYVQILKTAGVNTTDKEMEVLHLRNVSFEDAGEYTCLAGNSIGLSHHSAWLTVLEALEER
T1 sequence 2: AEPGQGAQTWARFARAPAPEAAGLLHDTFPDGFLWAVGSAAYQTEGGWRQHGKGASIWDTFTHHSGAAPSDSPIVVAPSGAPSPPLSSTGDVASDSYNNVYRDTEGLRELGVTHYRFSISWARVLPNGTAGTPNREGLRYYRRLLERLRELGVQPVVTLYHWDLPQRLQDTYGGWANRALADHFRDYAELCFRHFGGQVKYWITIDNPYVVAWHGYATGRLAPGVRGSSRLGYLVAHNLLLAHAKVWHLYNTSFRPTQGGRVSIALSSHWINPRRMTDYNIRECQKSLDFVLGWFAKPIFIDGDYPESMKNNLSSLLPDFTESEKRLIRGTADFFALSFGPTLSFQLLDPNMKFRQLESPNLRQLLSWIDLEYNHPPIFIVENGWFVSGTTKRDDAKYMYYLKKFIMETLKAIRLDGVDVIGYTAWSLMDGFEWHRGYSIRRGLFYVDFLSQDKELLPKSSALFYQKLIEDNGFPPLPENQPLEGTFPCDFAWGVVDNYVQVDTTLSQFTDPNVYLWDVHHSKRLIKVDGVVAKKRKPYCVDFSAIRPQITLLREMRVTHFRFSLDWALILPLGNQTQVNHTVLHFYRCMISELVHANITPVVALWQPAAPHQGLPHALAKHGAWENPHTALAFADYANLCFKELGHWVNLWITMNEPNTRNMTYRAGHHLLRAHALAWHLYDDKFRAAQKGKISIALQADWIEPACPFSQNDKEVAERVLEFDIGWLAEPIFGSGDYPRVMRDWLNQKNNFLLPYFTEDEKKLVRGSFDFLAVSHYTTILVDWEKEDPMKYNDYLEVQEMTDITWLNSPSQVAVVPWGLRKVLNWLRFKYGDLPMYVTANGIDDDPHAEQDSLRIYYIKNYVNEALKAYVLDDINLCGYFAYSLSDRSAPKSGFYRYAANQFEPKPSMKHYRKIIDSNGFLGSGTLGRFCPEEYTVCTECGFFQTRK
Put plainly: SPR; FGF21 immobilized, 1:1 FGFR1c-αKlotho complex passed over the chip (FIG. 1D). (Surface plasmon resonance follows binding to a sensor surface in real time, without labels.)

In assay [3] the target is T2, ectodomain of murine αKlotho (A35 to K982 of SEQ ID NO: 231) with a C-terminal FLAG tag (murine, UniProt O35082 35-982).
T2 construct: Purified from culture media of a HEK293 cell line; also called αKlotho ectodomain; not shown: C-terminal FLAG tag
T2 sequence: T1 sequence 2
Nature of the assay: SPR; FGF21 immobilized, increasing concentrations of αKlotho ectodomain passed over the chip (FIG. 4E). How it is done: SPR experiments were performed on a Biacore 2000 instrument (Biacore AB), and all the protein-protein and protein-peptide interactions were studied at 25° C. in HBS-EP buffer (10 mM HEPES-NaOH, pH 7.4, 150 mM NaCl, 3 mM EDTA, 0.005% (v/v) polysorbate 20). Proteins were immobilized by amine coupling on flow channels of research grade CM5 chips (Biacore AB). Proteins were injected over a CM5 chip at a flow rate of 50 μl min⁻¹, and at the end of each protein injection (180 s), HBS-EP buffer (50 μl min⁻¹) was flowed over the chip to monitor dissociation for 180 s. In experiments where βKlotho binding to FGFR was analyzed, the chip surface was then regenerated by injecting 50 μl of 2.0 M NaCl in 10 mM sodium/potassium phosphate, pH 6.5. In experiments where α/βKlotho binding to FGF19/21/23 or binding of the FGFR1c-βKlotho complex to FGF21 was studied, 2.0 M NaCl in 10 mM sodium acetate, pH 4.5 was used for chip regeneration. To control for nonspecific binding in experiments where the ectodomain of αKlotho or βKlotho was immobilized on the chip, β-glucuronidase was coupled to the control flow channel of the chip (˜43-68 fmol/mm²). […] For each protein injection over a chip onto which αKlotho or βKlotho had been immobilized, the nonspecific responses from the β-glucuronidase control flow channel were subtracted from the responses recorded for the α/βKlotho flow channel.

Sequence of FGFR1c endogenously expressed by HEK293 cells transiently transfected with murine βKlotho (P11362 22-822): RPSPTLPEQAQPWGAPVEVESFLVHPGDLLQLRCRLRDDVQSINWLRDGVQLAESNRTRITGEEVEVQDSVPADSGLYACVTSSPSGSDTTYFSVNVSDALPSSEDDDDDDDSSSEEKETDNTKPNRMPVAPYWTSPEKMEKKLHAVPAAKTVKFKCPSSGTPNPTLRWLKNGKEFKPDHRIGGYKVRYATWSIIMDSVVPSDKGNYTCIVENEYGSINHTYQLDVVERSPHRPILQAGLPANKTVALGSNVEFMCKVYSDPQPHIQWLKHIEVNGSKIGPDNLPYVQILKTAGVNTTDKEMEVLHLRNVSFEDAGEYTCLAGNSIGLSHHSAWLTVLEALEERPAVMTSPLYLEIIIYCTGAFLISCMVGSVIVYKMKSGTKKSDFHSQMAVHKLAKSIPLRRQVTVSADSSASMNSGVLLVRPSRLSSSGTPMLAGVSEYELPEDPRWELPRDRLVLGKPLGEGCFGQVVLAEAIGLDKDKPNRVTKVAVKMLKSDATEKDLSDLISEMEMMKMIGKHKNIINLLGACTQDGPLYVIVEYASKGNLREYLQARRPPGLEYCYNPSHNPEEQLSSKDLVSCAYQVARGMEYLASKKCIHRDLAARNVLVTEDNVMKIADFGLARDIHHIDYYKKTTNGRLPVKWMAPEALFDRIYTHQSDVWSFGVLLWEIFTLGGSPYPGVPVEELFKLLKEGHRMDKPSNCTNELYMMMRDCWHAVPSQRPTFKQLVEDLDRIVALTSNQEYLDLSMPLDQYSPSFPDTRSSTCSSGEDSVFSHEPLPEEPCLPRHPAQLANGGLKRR

B1: human FGF21, secreted bioactive form (H29 to S209 of SEQ ID NO: 100) (ligand)
chain: HPIPDSSPLLQFGGQVRQRYLYTDDAQQTEAHLEIREDGTVGGAADQSPESLLQLKALKPGVIQILGVKTSRFLCQRPDGALYGSLHFDPEACSFRELLLEDGYNVYQSEAHGLPLHLPGNKSPHRDPAPRGPARFLPLPGLPPALPEPPGILAPQPPDVGSSDPLSMVGPSQGRSPSYAS
notes: Used both immobilized on the SPR chip and in solution; also called wild-type FGF21; native FGF21
For the molecule B1, the “Induction of Egr1 protein expression (immunoblot, HEK293 cells co-expressing FGFR1c and βKlotho)” value in assay [1] is > 3 fold greater concentration than the 30 ng ml^-1 of the Q104M mutant. In addition, the binding result in assay [2] and in assay [3] was “no binding” each time.
